Patent publication US20220228164A1, “ENGINEERED ANTIGEN PRESENTING CELLS” (Neogene Therapeutics B.V., priority 2021, published 2022)

Tested on: TCR transduced Jurkat cells
Assay: Co-culture of TMG-expressing immortalized B cells with TCR transduced Jurkat cells, CD69 by flow cytometry (Example 5)
Type: cell-based, human
Details: 1:1 E:T, 20 hours co-culture
Excerpt: B cells from healthy donors are isolated from PBMCs using magnetic-bead enrichment using protocols known to the skilled artisan and subsequently immortalized either by EBV infection or transduction with BCL-6/BCL-xL with methods known to the skilled artisan and as described herein (Example 10). Non-EBV immortalized B cells are either transduced with BCL-6/BCL-xL alone or co-transduced with CD40L transgene. Retroviral supernatant for B cell transduction is produced using methods known to a person skilled in the art and as described in this invention (Example 10). B cells are retrovirally transduced with different TMG constructs. The example presents different TMG designs encoding varying numbers of 25mer epitopes (1, 3, 12 or 40 epitopes) with or without LAMP1 signaling and transmembrane sequences. 96 hours after transduction, TMG-expressing B cells are enriched based on puromycin resistance using protocols described in the art and this invention (Example 10). In brief, BCL-6/BCL-xL immortalized B cells are cultured in complete B cell medium (RPMI1640 medium supplemented with 10% (v/v) Fetal Calf Serum (FCS), 1% (v/v) Penicillin/Streptomycin (P/S), 1% (v/v) Sodium Pyruvate, 1% (v/v) Non-essential amino acids, 1% (v/v) Glutamax, 50 nM 2-Mercaptoethanol) containing rh-IL-21 (50 ng/mL) and 1 ug/ml puromycin and at a density of 200,000-250,000 cells/ml for 96 hours. […]

B1: CD40L transgene: hCD40L transgene expressed in BCL-6/BCL-xL immortalized B cells (protein)
DNA: MIETYNQTSPRSAATGLPISMKIFMYLLTVFLITQMIGSALFAVYLHRRLDKIEDERNLHEDFVFMKTIQRCNTGERSLSLLNCEEIKSQFEGFVKDIMLNKEETKKENSFEMQKGDQNPQIAAHVISEASSKTTSVLQWAEKGYYTMSNNLVTLENGKQLTVKRQGLYYIYAQVTFCSNREASSQAPFIASLCLKSPGRFERILLRAANTHSSAKPCGQQSIHLGGVFELQPGASVFVNVTDPSQVSHGTGFTSFGLLKL
- MHC-class II restricted antigen-presentation (CD69 expression by TCR transduced Jurkat cells): can enhance
